Assay results reported in publication PMC3918674 (Journal of molecular biology, 2013).
Where no end group is shown, it is not given here.

Columns and labels:
SEC = target: the molecule itself; assay: SEC
[1] = target: ClpAP complex (hexameric ClpA associated with tetradecameric ClpP) (Escherichia coli, UniProt P0ABH9 1-758; P0A6G7 15-207); assay: single-turnover stopped-flow fluorescence
Chain of ClpAP complex (hexameric ClpA associated with tetradecameric ClpP) (P0ABH9 whole entry, chain 1 of 2): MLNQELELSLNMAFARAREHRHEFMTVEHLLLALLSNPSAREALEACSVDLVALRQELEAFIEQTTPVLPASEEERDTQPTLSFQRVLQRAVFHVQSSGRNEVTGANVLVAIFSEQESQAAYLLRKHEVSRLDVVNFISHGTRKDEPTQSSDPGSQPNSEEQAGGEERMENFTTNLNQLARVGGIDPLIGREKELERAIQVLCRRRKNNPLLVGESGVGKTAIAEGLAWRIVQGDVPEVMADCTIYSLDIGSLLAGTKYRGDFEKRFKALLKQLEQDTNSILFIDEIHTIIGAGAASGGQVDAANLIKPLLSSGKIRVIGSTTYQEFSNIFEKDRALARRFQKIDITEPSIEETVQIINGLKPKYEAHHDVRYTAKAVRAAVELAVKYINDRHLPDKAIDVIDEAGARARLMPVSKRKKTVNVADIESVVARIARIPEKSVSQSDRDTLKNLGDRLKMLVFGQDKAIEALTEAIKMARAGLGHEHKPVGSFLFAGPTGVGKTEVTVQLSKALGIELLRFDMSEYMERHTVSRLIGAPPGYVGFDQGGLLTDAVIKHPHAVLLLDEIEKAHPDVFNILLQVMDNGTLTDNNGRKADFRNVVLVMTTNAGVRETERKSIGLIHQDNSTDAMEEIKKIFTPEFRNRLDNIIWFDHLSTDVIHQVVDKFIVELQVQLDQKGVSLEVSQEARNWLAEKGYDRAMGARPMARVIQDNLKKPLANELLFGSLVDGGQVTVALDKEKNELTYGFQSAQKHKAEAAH
Chain of ClpAP complex (hexameric ClpA associated with tetradecameric ClpP) (P0A6G7 15-207, chain 2 of 2): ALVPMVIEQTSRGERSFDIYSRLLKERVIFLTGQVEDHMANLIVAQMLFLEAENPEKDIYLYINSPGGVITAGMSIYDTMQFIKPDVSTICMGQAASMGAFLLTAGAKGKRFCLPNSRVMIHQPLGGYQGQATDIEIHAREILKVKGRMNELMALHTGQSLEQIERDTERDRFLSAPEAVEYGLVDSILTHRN

| binding result [1] | Binder | stoichiometry N (SEC) |
| --- | --- | --- |
|  | Escherichia coli ClpP (enzyme) not shown | 7 |
| binds | C(fluorescein‑5‑maleimide)TGEVSFQAANTKSAANLKVKELRSKKKLAANDENYALAA [N-Cys-40 polypeptide translocation substrate] |  |
| binds | C(fluorescein‑5‑maleimide)TKSAANLKVKELRSKKKLAANDENYALAA [N-Cys-30 polypeptide translocation substrate] |  |
| binds | C(fluorescein‑5‑maleimide)LILHNKQLGMTGEVSFQAANTKSAANLKVKELRSKKKLAANDENYALAA [N-Cys-50 polypeptide translocation substrate] |  |
